The text below walks through data of article PMC3109874.

The target in the test is dicamba monooxygenase (DMO) (Stenotrophomonas (formerly Pseudomonas) maltophilia, strain DI-6) (UniProt Q5S3I3). Put plainly: crystal structure.

The substance “dicamba monooxygenase (DMO) (from UniProt Q5S3I3 2-339) (enzyme)” came in with a stoichiometry N of 3.

One may read the stoichiometry N as a count of units in the complex or per binding partner.
